The labels stand for the following.
B1: NEK8 (parent)
chain: VVGTPCYISPELCEGKPYNQKSDI
B2: C1orf137 (parent)
chain: LPQETNLTLKVCKPQAPQKLDPTL
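Also: lentivirally expressed fusions sorted by FACS into six bins by GFP to DsRed ratio, PSI derived from sequencing read proportions per bin multiplied by bin number.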

The variants in the first series derive from B1. The series is described as follows: protein stability index of a GFP-peptide fusion (GPS, HEK-293T) (PSI 1-6); higher = more stable. The note with it: c terminus: a fixed tail appended.
On to VGGTPCYISPELCEGKPYNQKSDI [V2G], for which the protein stability index worked out at 3.66. Still for that read-out and setting: as for VVGTTCYISPELCEGKPYNQKSDI [P5T], the figure is 3.32. Same read-out and setting: as for VVGTDCYISPELCEGKPYNQKSDI [P5D], the figure is 2.98; as for VVGTECYISPELCEGKPYNQKSDI [P5E], 3.53; as for VVGTQCYISPELCEGKPYNQKSDI [P5Q], 3.62. Take VVGTHCYISPELCEGKPYNQKSDI [P5H]: the protein stability index came to 3.14. The same measure, in the same setting: next, VVGTVCYISPELCEGKPYNQKSDI [P5V]: 1.89; VVGTRCYISPELCEGKPYNQKSDI [P5R]: 2.76.

VVGTNCYISPELCEGKPYNQKSDI [P5N]: the protein stability index was found to be 3.21. Take VVGTLCYISPELCEGKPYNQKSDI [P5L]: the protein stability index was found to be 2.28. For VVGTYCYISPELCEGKPYNQKSDI [P5Y], the protein stability index was determined as 2.06. Consider VVGTGCYISPELCEGKPYNQKSDI [P5G], for which the protein stability index stood at 3.27. Same read-out and setting: next, VVGTCCYISPELCEGKPYNQKSDI [P5C]: 2.56; VVGTACYISPELCEGKPYNQKSDI [P5A]: 3.05. For the variant VVGTWCYISPELCEGKPYNQKSDI [P5W], the protein stability index was 1.66. The same measure, in the same setting: next, VVGTKCYISPELCEGKPYNQKSDI [P5K]: 3.18. For the variant VVGTSCYISPELCEGKPYNQKSDI [P5S], the protein stability index is 3.36. The same measure, in the same setting: next, VVGTICYISPELCEGKPYNQKSDI [P5I]: 1.64. The same measure, in the same setting: as for VVGTMCYISPELCEGKPYNQKSDI [P5M], the figure is 2.75; as for VVGTFCYISPELCEGKPYNQKSDI [P5F], 1.16.

Consider VVGTPEYISPELCEGKPYNQKSDI [C6E], for which the protein stability index turned out to be 4.34. On to VVGTPNYISPELCEGKPYNQKSDI [C6N], for which the protein stability index came out at 2.38. Still for that read-out and setting: next, VVGTPFYISPELCEGKPYNQKSDI [C6F]: 2.14. The same measure, in the same setting: as for VVGTPKYISPELCEGKPYNQKSDI [C6K], the figure is 3.48. Still for that read-out and setting: next, VVGTPPYISPELCEGKPYNQKSDI [C6P]: 3.38; VVGTPVYISPELCEGKPYNQKSDI [C6V]: 2.71. VVGTPGYISPELCEGKPYNQKSDI [C6G]: the protein stability index is 3.39. Still for that read-out and setting: next, VVGTPYYISPELCEGKPYNQKSDI [C6Y]: 2.02; VVGTPTYISPELCEGKPYNQKSDI [C6T]: 3.26; VVGTPMYISPELCEGKPYNQKSDI [C6M]: 3.56. On to VVGTPHYISPELCEGKPYNQKSDI [C6H], for which the protein stability index is 2.47. Still for that read-out and setting: next, VVGTPQYISPELCEGKPYNQKSDI [C6Q]: 4.11; VVGTPAYISPELCEGKPYNQKSDI [C6A]: 2.81; VVGTPRYISPELCEGKPYNQKSDI [C6R]: 3.88. VVGTPWYISPELCEGKPYNQKSDI [C6W]: the protein stability index turned out to be 2.5. Same read-out and setting: as for VVGTPIYISPELCEGKPYNQKSDI [C6I], the figure is 3.07; as for VVGTPSYISPELCEGKPYNQKSDI [C6S], 3.08; as for VVGTPDYISPELCEGKPYNQKSDI [C6D], 4.4. On the same count and under the same terms, as for VVGTPLYISPELCEGKPYNQKSDI [C6L], the figure is 3.25; as for VVGRPCYISPELCEGKPYNQKSDI [T4R], 2.79. Still for that read-out and setting: next, VVGAPCYISPELCEGKPYNQKSDI [T4A]: 2.95; VVGWPCYISPELCEGKPYNQKSDI [T4W]: 2.13. For VVGDPCYISPELCEGKPYNQKSDI [T4D], the protein stability index was found to be 3.72. As to VVGGPCYISPELCEGKPYNQKSDI [T4G], the protein stability index is 3.34.

Turning to VVGEPCYISPELCEGKPYNQKSDI [T4E], the protein stability index worked out at 4.08. Consider VVGIPCYISPELCEGKPYNQKSDI [T4I], for which the protein stability index was found to be 1.75.

On to VVGNPCYISPELCEGKPYNQKSDI [T4N], for which the protein stability index amounted to 3.87. Still for that read-out and setting: as for VVGLPCYISPELCEGKPYNQKSDI [T4L], the figure is 2.39; as for VVGKPCYISPELCEGKPYNQKSDI [T4K], 3.45; as for VVGPPCYISPELCEGKPYNQKSDI [T4P], 3.46. For VVGHPCYISPELCEGKPYNQKSDI [T4H], the protein stability index was 3.02. The same measure, in the same setting: as for VVGYPCYISPELCEGKPYNQKSDI [T4Y], the figure is 2.25.

Turning to VVGQPCYISPELCEGKPYNQKSDI [T4Q], the protein stability index amounted to 4.19. Still for that read-out and setting: next, VVGCPCYISPELCEGKPYNQKSDI [T4C]: 2.85; VVGFPCYISPELCEGKPYNQKSDI [T4F]: 2.21; VVGSPCYISPELCEGKPYNQKSDI [T4S]: 3.68. Same read-out and setting: next, VVGVPCYISPELCEGKPYNQKSDI [T4V]: 1.99; VVGMPCYISPELCEGKPYNQKSDI [T4M]: 2.78; VVGTPCYIVPELCEGKPYNQKSDI [S9V]: 2.31.

Turning to VVGTPCYIGPELCEGKPYNQKSDI [S9G], the protein stability index worked out at 2.99. Same read-out and setting: next, VVGTPCYIKPELCEGKPYNQKSDI [S9K]: 3.61; VVGTPCYIEPELCEGKPYNQKSDI [S9E]: 3.16; VVGTPCYICPELCEGKPYNQKSDI [S9C]: 1.94. On the same count and under the same terms, as for VVGTPCYIRPELCEGKPYNQKSDI [S9R], the figure is 2.48; as for VVGTPCYIWPELCEGKPYNQKSDI [S9W], 2.25; as for VVGTPCYIFPELCEGKPYNQKSDI [S9F], 1.96.

On to VVGTPCYINPELCEGKPYNQKSDI [S9N], for which the protein stability index worked out at 2.31. On to VVGTPCYIIPELCEGKPYNQKSDI [S9I], for which the protein stability index is 2.32. Turning to VVGTPCYIAPELCEGKPYNQKSDI [S9A], the protein stability index is 2.45. Take VVGTPCYIQPELCEGKPYNQKSDI [S9Q]: the protein stability index was found to be 2.62. Still for that read-out and setting: next, VVGTPCYILPELCEGKPYNQKSDI [S9L]: 1.68; VVGTPCYIHPELCEGKPYNQKSDI [S9H]: 2.04; VVGTPCYIMPELCEGKPYNQKSDI [S9M]: 2.4. The same measure, in the same setting: as for VVGTPCYITPELCEGKPYNQKSDI [S9T], the figure is 2.61; as for VVGTPCYIDPELCEGKPYNQKSDI [S9D], 3.44. On to VVGTPCYIPPELCEGKPYNQKSDI [S9P], for which the protein stability index worked out at 3.58.

A further series covers variants of B2. The series is described as above. The note with it: c terminus: a fixed tail appended.
LPQETNLTLKVCKPQAPQKLDPTW [L24W]: the protein stability index was 3.3. Still for that read-out and setting: next, LPQETNLTLKVCKPQAPQKLDPTV [L24V]: 4.52. The same measure, in the same setting: next, LPQETNLTLKVCKPQAPQKLDPTH [L24H]: 4.75; LPQETNLTLKVCKPQAPQKLDPTF [L24F]: 4.32. Same read-out and setting: as for LPQETNLTLKVCKPQAPQKLDPTS [L24S], the figure is 4.53. As for LPQETNLTLKVCKPQAPQKLDPTQ [L24Q], the protein stability index came to 4.37.

With LPQETNLTLKVCKPQAPQKLDPTM [L24M], the protein stability index was determined as 3.94. Same read-out and setting: as for LPQETNLTLKVCKPQAPQKLDPTT [L24T], the figure is 4.39.

LPQETNLTLKVCKPQAPQKLDPTD [L24D]: the protein stability index came out at 5.42. On the same count and under the same terms, next, LPQETNLTLKVCKPQAPQKLDPTI [L24I]: 4.1; LPQETNLTLKVCKPQAPQKLDPTC [L24C]: 4.35; LPQETNLTLKVCKPQAPQKLDPTE [L24E]: 4.8. Still for that read-out and setting: as for LPQETNLTLKVCKPQAPQKLDPTG [L24G], the figure is 4.52; as for LPQETNLTLKVCKPQAPQKLDPTA [L24A], 4.34; as for LPQETNLTLKVCKPQAPQKLDPTN [L24N], 4.56.

Turning to LPQETNLTLKVCKPQAPQKLDPTR [L24R], the protein stability index was 4.33.

As to LPQETNLTLKVCKPQAPQKLDPTK [L24K], the protein stability index was 4.21.

With LPQETNLTLKVCKPQAPQKLDPTY [L24Y], the protein stability index worked out at 3.37.

(Values after the supplement of paper PMC10567573.)
